Data published in publication PMC4191419, “SSX2 is a novel DNA-binding protein that antagonizes polycomb group body formation and gene repression”.

Molecular target: SSX2 (rSSX2) (UniProt Q16385 1-188)
Experiment: MST; Hill coefficient 3.0; 50 nM DNA; EMSA: 20 mM Tris-HCl pH 7.4, 50 mM NaCl, 1 mM DTT (complexes stable at 75 mM, dissolved at 250 mM NaCl; fragment used not stated); MST: 20 mM Tris-HCl pH 7.4, NaCl printed as 50 nM (probably 50 mM), 0.05% NP40, ambient temperature, 2 h
Conditions: protein: recombinant

Chain of SSX2 (rSSX2) (Q16385 whole entry, the tested form may be a part): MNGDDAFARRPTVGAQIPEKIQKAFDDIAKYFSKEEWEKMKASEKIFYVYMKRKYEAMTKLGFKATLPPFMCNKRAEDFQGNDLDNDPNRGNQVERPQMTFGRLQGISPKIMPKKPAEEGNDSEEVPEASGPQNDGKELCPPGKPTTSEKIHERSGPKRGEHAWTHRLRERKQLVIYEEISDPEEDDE

B1: Cy5 random 30-nt dsDNA (dsDNA)
DNA 1: CGTCTATACTTTCACAATGTTGACCTGCAC
DNA 2: GTGCAGGTCAACATTGTGAAAGTATAGACG
- Kd: 1.8 ± 0.2 µM
